The nature of this data set: soluble on expression in E. coli; label from the status in PepcDB or PDB records.
Take “MRNIMAGFLIFLSSAAYADINLYGPGGPHTALLDAAKLYAEKTGIIVNVHYGPQNKWNEDAKKNADILFGASEQSALAIIRDHKDSFSEKDIQPLYLRKSILLVKKGNPKNIRSIDDLTRPGIGVIVNDGGGTSNTSGTGVWEDIAGRKGNIETVAAIRKNIILYAPNSGTARKALENQPGADVWITWADWAASNPEIGDVVEIAPDYVIWRDMNITVRQDANDETRRFAEWLQTDEAAPAFKKYGWTRKGT”: the “soluble on expression in E. coli” value was “not soluble”.

In the case of “SDVVEVVGSWWAQEREDIIMKYEKGHRAGLPEDKGPKPFGSYNNNIDHFGMQHETELPPLTAREVKQIRREISRKSKWVKMLGEWDTYKNSRKLIDRAYQGIPMNIRGPMWSVLLNIEEIKLKNPGRYQIMKEKGKRSSEHIQQMDLDVSGTLRRHIFFRDRYGTKQRELLYILLAYEEYNPEVGYCRDLSHIAALFLLYLPEEDAFWALVQLLASERHSLQGFHSPNGGTVQGLQDQQEHVVATSLPKTMWHQDKKDLCGQCSSLGCLIRILIDGISLGLTLRLWDVYLVEGEQAFMLITKSPLRFSRSASRRRPGVARGHVFGTGSLMPGPGMMTLCSSILGPL”, the “soluble on expression in E. coli” value is on record as “soluble”.

On to “GMEKLNFGIPEWAFEFHGHKCPYMPMGYRAGSYALKIAGLEKEKDHRTYLLSEMSPEDMNGCFNDGAQAATGCTYGKGLFSLLGYGKLALILYRPGRKAIRVHVRNSFMDELSTRASDFFRYRKQGYEPSEIPAGAIDPVLEWISSLEDEEIFEYREIDGFTFEPVKKNGAKVRCDVCGEYTYEADAKLLNGKPVCKPDYYGKK”, for which the “soluble on expression in E. coli” value is reported as “soluble”.

Turning to “MFPSSEVEAKRTTLNLELESNTDRLLQEKDDLLPQSVTNSSDEGTPFAQVEGASDDNTAEQDSDKPGASVADADTKPVDPEWKTITVASGDTLSTVFTKAGLSTSAMHDMLTSSKDAKRFTHLKVGQEVKLKLDPKGELQALRVKQSELETIGLDKTDKGYSFKREKAQIDLHTAYAHGRITSSLFVAGRNAGLPYNLVTSLSNIFGYDIDFALDLREGDEFDVIYEQHKVNGKQVATGNILAARFVNRGKTYTAVRYTNKQGNTSYYRADGSSMRKAFIRTPVDFARISSRFSLGRRHPILNKIRAHKGVDYAAPIGTPIKATGDGKILEAGRKGGYGNAVVIQHGQRYRTIYGHMSRFAKGIRAGTSVKQGQIIGYVGMTGLATGPHLHYEFQINGRHVDPLSAKLPMADPLGGADRKRFMAQTQPMIARMDQEKKTLLALNKQR”, the “soluble on expression in E. coli” value is on record as “not soluble”.

As for “MKNFVRTTLLAATLAGVSFGAFATAVPNPPLPAQDPIVQHLKLTNDQITRIKKLHQQLETDVSQISMKGIKDGALIEVIKSGKWDDAAVKQQLAAFSNIEQQARYYRVKYYFDLSKVLTPEQRQQVQQDLAQALELEHHHHHH”, the “soluble on expression in E. coli” value was “soluble”.

As to “MKGFYHHPSRTISLRNNLSERQLRSTLAHELGHAMRGDVPTSGVFAEHIERRADEFAARLLISPIEYRLAESLHDGHIGAIAYELGVTVRLVEVWRDMHDRITA”, the “soluble on expression in E. coli” value is recorded as “not soluble”.

Regarding “MGSDKIHHHHHHMKIHFVGIGGIGMSAVALHEFSNGNDVYGSNIEETERTAYLRKLGIPIFVPHSADNWYDPDLVIKTPAVRDDNPEIVRARMERVPIENRLHYFRDTLKREKKEEFAVTGTDGKTTTTAMVAHVLKHLRKSPTVFLGGIMDSLEHGNYEKGNGPVVYELDESEEFFSEFSPNYLIITNARGDHLENYGNSLTRYRSAFEKISRNTDLVVTFAEDELTSHLGDVTFGVKKGTYTLEMRSASRAEQKAMVEKNGKRYLELKLKVPGFHNVLNALAVIALFDSLGYDLAPVLEALEEFRGVHRRFSIAFHDPETNIYVIDDYAHTPDEIRNLLQTAKEVFENEKIVVIFQPHRYSRLEREDGNFAKALQLADEVVVTEVYDAFEEKKNGISGKMIWDSLKSLGKEAYFVEKLPELEKVISVSENTVFLFVGAGDIIYSSRRFVERYQSSKSSPSRVLGSNK”, the “soluble on expression in E. coli” value is given as “soluble”.

Take “ADKNPGSENMTNTIGPHDRGGSSPIYNILNSYLTAYNGSHHLYDRMSFLCLSSQNTLNGACPSSDAPGTATIDGETNITLQFTEKRSLIKRELQIKGYKQFLFKNANCPSKLALNSSHFQCNREQASGATLSLYIPAGELNKLPFGGVWNAVLKLNVKRRYDTTYGTYTINITVNLTDKGNIQIWLPQFKSNARVDLNLRPTGGGTYIGRNSVDMCFYDGYSTNSSSLEIRFQDDNSKSDGKFYLKKINDDSKELVYTLSLLLAGKNLTPTNGQALNINTASLETNWNRITAVTMPEISVPVLCWPGRLQLDAKVKNPEAGQYMGNIKITFTPSSQTLDNKQVEKNITVTASVDPVIDLLQADGNALPSAVKLAYSPASKTFESYRVMTQVHTNDATKKVIVKLADTPQLTDVLNSTVQMPISVSWGGQVLSTTAKEFEAAALGYSASGVNGVSSSQELVISAAPSTAGTAPTAGNYSGVVSLVMTLGSDNKQVEKNITVTASVDPVIDLLLEHHHHHH”: the “soluble on expression in E. coli” value is recorded as “soluble”.

In the case of “METLSNIQCFVRSAEAGSFAEAARRLGLTPAGVGKNVARLESNLGVRLFQRSTRRLTLTEAGERFLQEVGGSLEGIQTALANVSSVGNQPSGTLKVSMGLAFGRDYILPLLGEFLERYPDIVPDWHFDNRQVDLIGEGFDAAIGGGFELPPGVVARNLTPGHLILLASPTYLRDKPPIRHPGDLGGFDGIRIRSPQTGRVRSWPLRRRNGEEAPIELRERMTMSDPEATCEVAAMGLGITLVCMQHAYAYLESGALVRVLPDWYVDAGNTSLYYAANKLLPAKTRVFVDFVVDYFRRQDLARRFSAFPTG”, the “soluble on expression in E. coli” value is “not soluble”.

With “MGSDKIHHHHHHMEFEVKKTFGKARLGVMKLHHGAVETPVFMPVGTNASVKLLTPRDLEEAGAEIILSNTFHLMLKPGVEIIKLHRGLHNFMGWKRPILTDSGGFQVFSLPKIRIDDEGVVFRSPIDGSKVFLNPEISMEVQIALGSDICMVFDHCPVPDADYEEVKEATERTYRWALRSKKAFKTENQALFGIVQGGIYPDLRRESALQLTSIGFDGYAIGGLSIGEERSLTLEMTEVTVEFLPEDKPRYFMGGGSPELILELVDRGVDMFDSVFPTRIARHGTALTWNGKLNLKASYNKRSLEPVDERCGCYTCKNFTRSYIHHLFDRGEVLGQILLTIHNINFMISLMKEVRRSIESGTFKELKSKVVEVYSSGGVNV”, the “soluble on expression in E. coli” value was “soluble”.

Take “MKWFRFPIAVIGLVLLSGCATQNESATQWLYPPMAVPLQASIQQEVQIARLSQLLQRTDLEPEIRAKMLFERGNYYDSVGLRDLARLDFTQSLSINPAQPDVFNLLGVYYTEAGEFDAAYESFDSTLELDPSNEYAVRNRAIALYYGERPQLALEEITKHYQQDPQDPFRALWLYIIESDIDPTKARTELLERYQQHDEQWGWVLVGLMLDQLSEEVAFKAIIAGSRENELLAQRLTEAYFYLGKRYQMQGELAHALSLYKLAISFNVYEYVEHRYAFLELGRIYQQAREEQLARAKAEAMTQ”: the “soluble on expression in E. coli” value is recorded as “not soluble”.

Regarding “MGSDKIHHHHHHMNSTMQVLVIGGTGTLGRQIAKNAIDAGHKVRCMVRKPKAASFLQEWGCELTRGNLLNKEDIEYALDGIDAVIDAATSRPDDPRSVYETDWDGKLNLFNACEEKNVKRVVFLSLLAAEKYREIPLMDIKYCTEELLVSSSLDYTILQGVAFMQGAIGQFAIPILNNEPVWISGNPTDIAYMNTQDIARFAVAALDRPQTIKGRFPIVGPKAWSAKGLVDLCEKFSEKRARVLKVSPTIISIAQSVVSFFEPTLNVAERLSFSELSGSGGKLDAPMEDTYTAFGLNPADTTTMEGYIKEYYGVILKRLKDIGVDLDIEEKKKFPI”, the “soluble on expression in E. coli” value is on record as “not soluble”.

As to “MAYEDLREFIGRLEDKGELARVKHEVSPILEMSEVADRTVKAGGKALLFERPKGYDIPVFMNAFGTERRMKLALEVERLEEIGERLLSALEFRPSSFMDALKGVGMLKDFMSFIPKKTGKAPCKEVVAESLDKFPILKCWPKDAGRFITFPVVITKDPETGEMNAGMYRMQVFDGKTTGMHWQIHKHGAEHFRKMAEKGGGKIEVAVAIGVDPATLYAATAPLPSGISEFMFAGFIRKERLKVTECETVDLLVPANAEIILEGYVRVDEMRVEGPFGDHTGYYTPPEPYPVFHITHITHRENPIYHATVVGKPPMEDAWLGKATERIFLPILRMMHPEIVDINLPVEGAFHNLAIVSIKKRYPGQAKKVMYAIWGTGMLSLTKIVVVVDDDVNVHDMREVVWAVTSRFDPARDVVILPPSPTDSLDHSAYIPNLAGKLGIDATKKWRDEGYEREWPDVVEMDAETKRKVDAIWNEIRNMVLAAALEHHHHHH”, the “soluble on expression in E. coli” value is “not soluble”.

Take “NTIEKEERIKIAVLTEQNQKNRIADYQDREEIYERQRRKMHDYKNQLSTIQTLIKNGHTDEALSFTQKLTESIAVEMSAINTNHPVVNAILNQKYRSMQEKHIAVILKVGDLQEICLEEEEIVILLSNLLDNAIRESEKVLKNTGKAVIHLKLECEDHKLIFAVRNPVTEKVEIENDTIKSKRGDHHGIGLLNVKAVVDKYGGDMVLSCDENEFKAVVIL”: the “soluble on expression in E. coli” value is reported as “not soluble”.

“MITLYGFGTGFGLPEISPFVTKTEVQLKMAGLPYRKERAMPPASPKGQLPFIDDGGEAVADSTFIRAHIERRYGFDFDAGLSLQERAQAWAFERMIEHHVYWALVGARWVDPINFAKGPSHFFDGAPEHNREKLREDAQFRVAENYLLSGLGRHAPDDDVDLAVRSLFALSVQLGDKAYLMGNKPCGVDATAFGALAGILTPFFESGLRQRAEGFPNLTAYVDRMMDNYYPEFAWTPLRQAALEHHHHHH”: the “soluble on expression in E. coli” value is reported as “not soluble”.

Turning to “MKRQRLVDKEWILQFPIEYFIHKEVHELNSTQAQRLVSLFKNGCETAYIARYRGDVHGYLAPEKIRKAMEAYVDAKNLNNKVSSAISTVTAKVAGAQEKIIVTERFKRCEEFDEVTDISKEYSTGTRKTKANIARALGLEPPAQSILDGNFVDFKSLLSNGLKTVKDVEEHLKICLADLINRDEEVRKVSANIDILKKECRVSAKLSREAEKNRKDLEKRGIIEKYKNFIGEKWNAEDIRDHTVSALNKGFDEGIITWKIECEFNDAKYIHPFSRKSVYFGMKNFYQEALAYSIKNYFIPRIERKMANHLKDKAKDRSIVLFGENVDQLLSQEGIRDKFVIALDPGRSKIKTAFLKPTGEVVDMSSFSIYGTRFDGGGVDLLKKWSQQTERKDIVFAIGNGTNTYNTQIAVSDMINSNVFPKEINVSYCIVPEHGASKYSCTPSAIEEFGENAEITEISAVSIGRRLIDPMSEYVKIEPQHLGKGQYQLSVDPKKLNESLLNVVRDRVSFNGVDLNTASKNLLQRINGLNEKTAKEIVQYREQNGRFRSRAELKEVKGIGALTFQQCAGFLTVSRPDDAEDGPPKKKFKKSSTSKEWNPFDETIVHPDDYRTGESLLGKLNVSIEDITGRIKSFSISRLTAEEAKVLNLLQNLTLKTKMKPPPPLRTKVGQIRDLAEGQRFTGTVSNKTDFGVFIDIGVGQDGLAHISHFKDGHYSLMLPSVNDSVEVVIDKIREDGKISLSPVY”, the “soluble on expression in E. coli” value was “not soluble”.

As to “MAYEISKKVLHIVGKTNATYKLIEEGDKILLGLSGGKDSIMLACILARMQKHAPFKFDFKAVTVHYGLGEDLKWLSDLCQEQGIEHEIIYTQIAATINEKRREKSSFCSFCSRLRRGTLYSKALEEGYNKVAIAHHLDDAVESFFMNFTYNGSLRSMPPIYRAENGLLVIRPLIKVREASSIHFVTSQNIPVAPDCNCPAKQPTSDKPPIARLATKNFLKEMQNLHPRFFDSLENAFNNVQANSFSDAKYLDALEHHHHHH”, the “soluble on expression in E. coli” value was “soluble”.
